Source: paper PMC5512444 (Structure (London, England : 1993), 2017)
Substitutions are numbered along the chain they refer to. Where two headings read alike, the source gives them in different places.

Experiments:
Ube2g2 (Homo sapiens) [1] = target: Ube2g2 (Homo sapiens) (UniProt P60604); settings: cited from earlier work
Ube2g2 (Homo sapiens) [2] = target: Ube2g2 (Homo sapiens) (UniProt P60604); settings: cited from earlier work; remark: listed apart in the source
Ube2g2 (Homo sapiens) [3] = target: Ube2g2 (Homo sapiens) (UniProt P60604); settings: cited from earlier work; remark: listed apart in the source
Ube2g2 (Homo sapiens) [4] = target: Ube2g2 (Homo sapiens) (UniProt P60604); settings: cited from earlier work; remark: listed apart in the source
Y103G-Ube2g2 = target: T1, Y103G-Ube2g2 (human, UniProt P60604 1-165, Y103G); test: ITC
T1 sequence: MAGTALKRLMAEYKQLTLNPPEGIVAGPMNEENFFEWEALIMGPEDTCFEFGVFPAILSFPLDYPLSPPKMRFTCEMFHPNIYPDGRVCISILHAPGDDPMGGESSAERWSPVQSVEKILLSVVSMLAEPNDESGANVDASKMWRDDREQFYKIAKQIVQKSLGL

Ube2g2 (wild type) = target: T2, Ube2g2 (wild type) (human, UniProt P60604 1-165); test: NMR 15N heteronuclear NOE of the complex compared with the free protein
T2 sequence: T1 sequence with G103Y

C89K-Ube2g2 = target: T3, C89K-Ube2g2 (human, UniProt P60604 1-165, C89K); test: NMR 15N CPMG relaxation dispersion of the complex compared with the free protein
T3 sequence: T1 sequence with C89K, G103Y

For gp78 G2BR (from UniProt Q9UKV5), the Kd (Ube2g2 (Homo sapiens) [1]) is given as 21 nM.

For gp78 RING-G2BR (from UniProt Q9UKV5), the Kd (Ube2g2 (Homo sapiens) [2]) is given as 38 nM.

In the case of gp78 RING (from UniProt Q9UKV5), the Kd (Ube2g2 (Homo sapiens) [3]) is listed as 144000 nM and the Kd (Ube2g2 (Homo sapiens) [4]) is listed as 3000 nM.

B1: G2BR peptide of gp78 (Ube2g2 binding region) (peptide)
peptide: WSADERQRMLVQRKDELLQQARKRFLNK
For B1, the Kd (Y103G-Ube2g2) was 59 ± 6 nM, the dH (Y103G-Ube2g2) was -39.5 ± 0.4 kcal/mol and the “stoichiometry N” value (Y103G-Ube2g2) was 0.95. B1: binds (Ube2g2 (wild type)).

B2: RING-G2BR fusion protein of gp78 (domain or fragment, human)
chain: KNYLRVVGNMEARFAVATPEELAVNNDDCAICWDSMQAARKLPCGHLFHNSCLRSWLEQDTSCPTCRMSLNIADNNRVREEGGGGGGGSSGSSGGSGGGSGSSSGGGGGSGGGSGGGGGGGADERQRMLVQRKDELLQQARKRFLNK
B2: binds (C89K-Ube2g2).
